In article PMC6346213:
Values joined by “and” are separate entries in the source; they are usually repeats but may differ in a detail not shown here. Equal entries are not always repeated.

Molecular target: COP9 signalosome (CSN) holo-complex (human (endogenous in HEK293)) (UniProt Q13098)
Assay: SEC; co-fractionation of native HEK293 lysate (freeze-thaw, 0.5% NP-40); Yarra-SEC-4000, 50 mM HEPES pH 7.5, 150 mM NaCl, 4°C; 81 fractions quantified by SWATH-MS; co-elution of protein profiles scored with CCprofiler (5% FDR) and by manual inspection

UniProt Q13098, sequence (Q13098 whole entry, looked up, one chain of several): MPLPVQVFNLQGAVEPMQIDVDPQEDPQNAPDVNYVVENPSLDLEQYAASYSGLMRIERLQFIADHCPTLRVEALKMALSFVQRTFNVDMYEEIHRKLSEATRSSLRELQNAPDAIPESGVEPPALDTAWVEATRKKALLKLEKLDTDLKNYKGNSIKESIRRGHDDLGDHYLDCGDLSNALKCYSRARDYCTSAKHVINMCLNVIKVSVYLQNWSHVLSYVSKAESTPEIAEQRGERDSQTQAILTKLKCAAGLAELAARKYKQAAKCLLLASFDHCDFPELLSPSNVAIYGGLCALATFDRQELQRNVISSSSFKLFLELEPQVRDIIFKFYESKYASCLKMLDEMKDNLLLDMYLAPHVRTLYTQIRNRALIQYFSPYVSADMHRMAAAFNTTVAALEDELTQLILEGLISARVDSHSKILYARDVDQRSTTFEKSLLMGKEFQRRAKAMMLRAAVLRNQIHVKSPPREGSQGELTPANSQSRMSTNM

E3-CRL substrate of the COP9 signalosome (components CUL4A and DDB2) (from UniProt Q13619 1-759; Q92466 1-427) (complex)
substrate-bound fraction of CSN holo-complex: 25% and 22%
